Non-standard residues stand in square brackets, D forms with d. Residues, ends and D or L forms follow the SMILES beside them. d(pGlu) = O=C1CC[C@H](C(=O)O)N1; pGlu = O=C1CC[C@@H](C(=O)O)N1
Experiments:
human GnRHR [1] = target: T1, human GnRHR (Homo sapiens, UniProt P30968); assay: Electrophysiological response of Xenopus oocytes injected with LC27-4 RNA transcript; type: cell-based; conditions: 2 x 10^-7 M agonist; LC27-4 RNA-injected oocytes
T1 construct: The human GnRH-R cDNA was subcloned into an expression vector, pSV2A, containing an SV40 early promoter; expressed in transfected cells; host or cells: COS-1 cells, transient DEAE-dextran transfection with pSV2A-human GnRH-R
T1 sequence (P30968 1-328): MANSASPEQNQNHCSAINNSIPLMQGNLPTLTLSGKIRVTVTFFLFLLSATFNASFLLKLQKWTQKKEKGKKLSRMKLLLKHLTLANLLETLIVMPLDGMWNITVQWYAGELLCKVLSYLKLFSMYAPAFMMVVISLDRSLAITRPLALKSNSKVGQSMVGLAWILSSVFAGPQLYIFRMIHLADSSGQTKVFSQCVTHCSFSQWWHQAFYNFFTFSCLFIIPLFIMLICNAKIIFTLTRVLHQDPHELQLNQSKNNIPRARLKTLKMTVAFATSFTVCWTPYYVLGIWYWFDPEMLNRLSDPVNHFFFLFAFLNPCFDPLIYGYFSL
Method: Construct LC27-4 was linearized and capped RNA transcript synthesized using T3 RNA polymerase. Oocyte preparation and electrophysiology were performed as previously described (Sealfon et al., 1990, Mol. Endocrinol. 4:119-124). Cells were injected with 1-10 ng of synthetic transcript and electrophysiology recorded via two-electrode voltage clamp 48 hours later. All agonists and antagonists were applied at a concentration of 0.2 µM.

mouse GnRH-R [2] = target: T2, mouse GnRH-R (Mus musculus, UniProt Q01776); assay: Electrophysiological response of Xenopus oocytes injected with WZ25 RNA transcript (two-electrode voltage clamp); type: cell-based; conditions: for response of RNA-injected oocytes to agonist: buserelin 100 nM
T2 construct: The longest open reading frame encodes a 327 amino acid protein; expressed in transfected cells; host or cells: Xenopus laevis oocytes injected with capped synthetic WZ25 RNA transcript
T2 sequence (Q01776 1-327): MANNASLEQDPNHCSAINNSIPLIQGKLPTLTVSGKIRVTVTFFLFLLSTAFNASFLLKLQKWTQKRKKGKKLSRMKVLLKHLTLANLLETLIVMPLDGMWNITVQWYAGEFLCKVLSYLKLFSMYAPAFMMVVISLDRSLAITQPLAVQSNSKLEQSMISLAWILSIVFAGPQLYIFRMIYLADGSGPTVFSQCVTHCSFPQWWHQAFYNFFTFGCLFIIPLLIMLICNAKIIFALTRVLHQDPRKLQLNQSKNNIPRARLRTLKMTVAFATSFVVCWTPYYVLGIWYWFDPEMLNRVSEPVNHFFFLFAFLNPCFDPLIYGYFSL
Method: Adult female Xenopus laevis (Nasco, Ft. Atkinson, WI) were kept at 18-20°C and a day/night cycle of 15h/9h. […] Peptide ligands were diluted in the perfusion buffer and introduced into the bath. The clamp current was recorded using a chart recorder. Reversal potentials were determined by continuous ramping from -70 to +10 mV over 2 seconds with and without agonist through an IBM PC/AT system using the TL-1 interface and pCLAMP software from Axon Instruments (Burlingame, CA).
WZ25 in pBluescript II SK+ (Stratagene) was linearized and capped RNA transcript synthesized using T3 RNA polymerase (Stratagene).

human GnRHR [3] = target: T1, human GnRHR; assay: 125I-GnRH-A receptor binding, membranes of COS-1 cells transfected with pSV2A-human GnRH-R; conditions: membranes from transfected COS-1 cells; read-out: dissociation constant, displacement of GnRH-A
mouse GnRH-R [4] = target: T2, mouse GnRH-R; assay: 125I-GnRH-A radioligand binding assay, membranes of WZ25 RNA-injected oocytes; conditions: WZ25 RNA-injected oocyte membranes; read-out: Kd, displacement of 125I-GnRH-A
Method: For membrane preparation, 500 oocytes were each injected with 2.5 ng synthetic WZ25 RNA.

GnRH-R = target: T3, GnRH-R (Mus musculus, UniProt Q01776); assay: 125I-GnRH-A radioligand binding assay, αT3-1 cell membranes; conditions: read-out: Kd, displacement of 125I-GnRH-A
T3 construct: similar Kds of 4.5 and 2.9 nM in WZ25 RNA-injected oocyte membranes and αT3-1 cell membranes respectively; endogenous in cells; host or cells: αT3-1 mouse gonadotrope cell membranes, combined with membranes from uninjected oocytes
T3 sequence (Q01776 1-327): T2 sequence (Q01776 1-327)

human GnRHR [5] = target: T1, human GnRHR; assay: Inositol phosphate production in COS-1 cells transfected with pSV2A-human GnRH-R; type: cell-based; conditions: GnRH 10^-8 M; read-out: IC50, inhibition of GnRH-stimulated inositol phosphate production
Method: For studies on inositol phosphate production, 1.8 x 10^5 cells/well (12-well plates) were transfected with 1.5 µg DNA. Cells were assayed 48 hours after transfection.
Accumulation of [^3H]IP in the presence of LiCl was used as an index of inositol phosphate turnover. […] The reaction was terminated by the addition of a perchloric acid solution and phytic acid. After neutralizing with KOH, the inositol phosphates were separated on a Dowex ion exchange column and counted.

[6] = target: mouse gonadotropin-releasing hormone receptor (GnRH-R), clone WZ25 (mouse); assay: cell-based or functional assay
[7] = target: human gonadotropin-releasing hormone receptor (GnRH-R), clone LC27-4 (human); assay: displacement of 125I-GnRH-A, membranes of COS-1 cells transfected with human GnRH-R
[8] = target: mouse gonadotropin-releasing hormone receptor (GnRH-R), clone WZ25 (mouse); assay: displacement of 125I-GnRH-A by GnRH-A, membranes of WZ25 RNA-injected oocytes
[9] = target: mouse gonadotropin-releasing hormone receptor (GnRH-R), clone WZ25 (mouse); assay: radioligand binding of 125I-GnRH-A to membranes of WZ25 RNA-injected oocytes; non-specific binding with 10^-6 M GnRH analogue was 662 cpm
[10] = target: mouse gonadotropin-releasing hormone receptor (GnRH-R), clone WZ25 (mouse); assay: displacement of 125I-GnRH-A by GnRH-A, alphaT3-1 cell membranes (endogenous mouse receptor)
[11] = target: human gonadotropin-releasing hormone receptor (GnRH-R), clone LC27-4 (human); assay: calculated from the IC50 of inhibition of GnRH-stimulated inositol phosphate production in COS-1 cells transfected with human GnRH-R
[12] = target: human gonadotropin-releasing hormone receptor (GnRH-R), clone LC27-4 (human); assay: cell-based or functional assay

In the case of CC(C)C[C@H](NC(=O)CNC(=O)[C@H](Cc1ccc(O)cc1)NC(=O)[C@H](CO)NC(=O)[C@H](Cc1c[nH]c2ccccc12)NC(=O)[C@H](Cc1cnc[nH]1)NC(=O)[C@@H]1CCC(=O)N1)C(=O)N[C@@H](CCCNC(=N)N)C(=O)N1CCC[C@H]1C(=O)NCC(N)=O [GnRH, gonadotropin-releasing hormone], the “response of RNA-injected oocytes to agonist” value (“response … to agonist” below) (human GnRHR [1]) is reported as “large depolarizing currents”, the “response … to agonist” value (mouse GnRH-R [2]; WZ25 RNA-injected oocytes) is reported as “large depolarizing response” and the “response to GnRH alone” value (mouse GnRH-R [2]; WZ25 RNA-injected oocytes, n=4) is reported as 4756±1082 nA. The “Vr of the current elicited by GnRH” value (mouse GnRH-R [2]; oocytes injected with WZ25 RNA transcript, n=7) was -27±0.79 mV.
Compound CCNC(=O)[C@@H]1CCCN1C(=O)[C@H](CCCNC(=N)N)NC(=O)[C@H](CC(C)C)N(C)C(=O)[C@@H](C)NC(=O)[C@H](Cc1ccc(O)cc1)NC(=O)[C@H](CO)NC(=O)[C@H](Cc1c[nH]c2ccccc12)NC(=O)[C@H](Cc1cnc[nH]1)NC(=O)[C@@H]1CCC(=O)N1 [GnRH-A, [D-Ala^6, NaMe-Leu^7, Pro^9-NHEt]GnRH] has a Kd (human GnRHR [3]) of 0.97 nM, a Kd (mouse GnRH-R [4]) of 4.5 nM and a Kd (GnRH-R) of 2.9 nM.
With CC(C)C[C@H](NC(=O)[C@@H](Cc1ccccc1)NC(=O)[C@H](Cc1ccc(O)cc1)NC(=O)[C@H](CO)NC(=O)[C@@H]1CCCN1C(=O)[C@@H](Cc1ccccc1)NC(=O)[C@@H]1CCC(=O)N1)C(=O)N[C@@H](CCCNC(=N)N)C(=O)N1CCC[C@H]1C(=O)NCC(N)=O [[D-Phe^2.6, Pro^3]GnRH, [D-Phe^2.6,Pro^3]-GnRH] ([pGlu][dF]PSY[dF]LRPG-NH2) the “response to GnRH in the presence of equimolar antagonist” value (mouse GnRH-R [2]; WZ25 RNA-injected oocytes, n=5) was 1880±551 nA and the “reduction in the response to GnRH” value (mouse GnRH-R [2]; equimolar antagonist, in comparison with the response to GnRH alone) was 60%.
Compound CC(C)C[C@H](NC(=O)[C@@H](Cc1c[nH]c2ccccc12)NC(=O)[C@H](Cc1ccc(O)cc1)NC(=O)[C@H](CO)NC(=O)[C@@H](Cc1c[nH]c2ccccc12)NC(=O)[C@@H](Cc1ccccc1)NC(=O)[C@H]1CCC(=O)N1)C(=O)N[C@@H](CCCNC(=N)N)C(=O)N1CCC[C@H]1C(=O)NCC(N)=O [antagonist 5, [D-pGlu^1,D-Phe^2,D-Trp^3,6]GnRH] ([d(pGlu)][dF][dW]SY[dW]LRPG-NH2) has a Kd (human GnRHR [3]) of 8.4 nM and an IC50 (human GnRHR [5]) of 105 nM.
“D-Ser(But)^6,Pro^9-N-ethylamide GnRH [buserelin]” was tested, and the “response … to agonist” value (human GnRHR [1]) was “large depolarizing currents” and the “response … to agonist” value (mouse GnRH-R [2]; WZ25 RNA-injected oocytes) was “elicited a depolarizing current”.
In the case of “GnRH antagonist [D-Phe^2.6,Pro^3]-GnRH (from UniProt P01148 24-92) (peptide)”, the reduction in the response to GnRH in the presence of equimolar antagonist, WZ25 RNA-injected oocytes [6] is reported as 60% and the response to GnRH (clamp current) in the presence of equimolar antagonist, WZ25 RNA-injected oocytes [6] is reported as 1880 nA.
“[Ac-D-NaI^1,D-α-4-ClPhe^2,D-Pal^3,D-Arg^6, D-Ala^10]GnRH [antagonist 13]” gave an IC50 (human GnRHR [5]) of 6.7 nM.
For “[D-Ala^6, NaMe-Leu^7, Pro^9-NHEt]GnRH (GnRH-A) (from UniProt P01148 24-92) (peptide)”, the Kd [7] was 0.97 nM, the Kd [8] was 4.5 nM and the Bo (maximal binding) [9] was 1430 cpm. It also gave a Kd [10] of 2.9 nM.
“antagonist 5: [D-pGlu^1,D-Phe^2,D-Trp^3,6]GnRH (from UniProt P01148 24-92) (peptide)” gave a Kd [7] of 8.4 nM, a Kd [11] of 3.6 nM and an IC50 of inhibition of GnRH-stimulated (10^-8 M) inositol phosphate production, transfected COS-1 cells [12] of 105 nM.
Work on “antagonist 13: [Ac-D-NaI^1,D-α-4-ClPhe^2,D-Pal^3,D-Arg^6, D-Ala^10]GnRH (from UniProt P01148 24-92) (peptide)” yielded a Kd [11] of 0.21 nM and an IC50 of inhibition of GnRH-stimulated (10^-8 M) inositol phosphate production, transfected COS-1 cells [12] of 6.7 nM.
Compound “gonadotropin-releasing hormone (GnRH) (from UniProt P01148 24-92) (peptide)” has a response to GnRH alone (clamp current) in WZ25 RNA-injected oocytes [6] of 4760 nA, an EC50 of inositol phosphate production, COS-1 cells transfected with human GnRH-R [12] of 3 nM and an increase in phosphoinositol metabolism at maximal receptor stimulation, COS-1 cells transfected with human GnRH-R [12] of 8 fold.

Reference: patent EP0647275B2 (Mount Sinai School of Medicine, priority 1992, dated 1994)
